Assay results reported in the RNAGym collection of RNA variant scans (doi:10.1073/pnas.2313332121).
Fewer inactive variants are shown than the library holds.

B1: TPR 5TU (parent)
chain: GGAUCUUCUCGAUCUAACAAAAAAGACAAAUCUGCCACAAAGCUUGAGAGCAUCUUCGGAUGCAGAGGCGGCAGCCUUCGGUGGCGCGAUAGCGCCAACGUUCUCAACUAUGACACGCAAAACGCGUGCUCCGUUGAAUGGAGUUUAUCAUG

Variants of: B1
Assay: polymerase ribozyme fitness, log enrichment relative to wild type (log ratio); higher = more active; in vitro selection for triplet polymerase activity
Summary of the method: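 Mutant libraries of each subunit of a heterodimeric triplet polymerase ribozyme were built by PCR and transcribed. Each library went through one round of in vitro selection in triplicate: annealing with biotinylated primer, partner subunit and triplets, frozen incubation at −7 °C, gel excision of extended constructs, streptavidin-bead capture and RT-PCR. Input and output libraries were Illumina-sequenced; only genotypes with ≥10 input reads and ≥1 read per output were kept. Fitness is log2(genotype enrichment/wild-type enrichment), using inverse-variance-weighted replicate averages.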

| Variant | polymerase ribozyme fitness (log ratio) |
| --- | --- |
| G59A G67A C108U | ≤ -4.2 |
| G59C G80A C93A | -3.86 |
| G59A G71A G117C | -3.56 |
| G59C C93U C116U U135G | -3.78 |
| G59C A97U | -0.431 |
| G59C A106U | -0.917 |
| G59U A91U | -4.12 |
| G58U G88C U130G | ≤ -4.2 |
| G59C G86A A89G | -4 |
| G58U U61G C63U G74C G141C | ≤ -4.2 |
| G59C C76A C87U A147C | -2.29 |
| G59C U82G C85A U102G | -4.09 |
| G59A G94A A150C | ≤ -4.2 |
| G59A A60C | -1.48 |
| G59A A60G | -0.0653 |
| G59A A66G | -3.24 |
| G59C G68C G70U G140U | ≤ -4.2 |
| G59A G83U | -1.06 |
| G59A C149A | -3.65 |
| G59C G94C A119C U146G | -1.61 |
| G59A C118G U130A C132G G140A | ≤ -4.2 |

| Variant | polymerase ribozyme fitness (log ratio) |
| --- | --- |
| G59C G81A | -2.07 |
| G59C C69A G133C | -1.75 |
| G59A C87U A121U | -0.901 |
| G59A C96A G117U | -0.271 |
| G59C G86C C96U A121U | -3.29 |
| G59A A119U | -0.778 |
| G59C G92A | -2.89 |
| G59U A60C | -2.96 |
| G59A U127C | -1.23 |
| G59C U78C G83A | -0.666 |
| G59C C95A C99G | ≤ -4.2 |
| G59C G124A | -1.57 |
| G59A C125A | 0.12 |
| G59A A115G G140A | ≤ -4.2 |
| G59A C99U A115G | -1.83 |
| G59C A120U A122C A147G | -1.22 |
| G58U G62U C99U C118U U134C | ≤ -4.2 |
| G59C C79U | -3.43 |
| G59A C85U | -1.79 |
| G59C A119C | -0.18 |
| G59C A110G | -3.79 |

| Variant | polymerase ribozyme fitness (log ratio) |
| --- | --- |
| G59A C93U A98U A138C | ≤ -4.2 |
| G59C G67A C85A G112U | ≤ -4.2 |
| G59A C99A G140U | -3.99 |
| G58U U61A U90A A142G | ≤ -4.2 |
| G59C A89C C93U G117C A120G U135A | -3.35 |
| G59A U78C G88U C96U U109G G140C | ≤ -4.2 |
| G59A U78G A91U U102G | ≤ -4.2 |
| G59C U78G G81C | -4.11 |
| G59C C95U A110G C116A | -3.2 |
| G59A G140C U144G | -3.79 |
| G58U U82A A142G | -0.998 |
| G59C A60C U77A C85A G140A U144C | ≤ -4.2 |
| G58U G81A A122G | -0.315 |
| G59A G67A G86C C96G G140U U144C A147U | ≤ -4.2 |
| G58U U135C | -1.62 |
| G59C A97U U139G | -0.518 |
| G58U C96A G126C | 0.641 |
| G59A G94C | -0.903 |
| G59C C99G G141U | -1.13 |
| G59C U61G C96G C105U A115U A150U | ≤ -4.2 |
| G59U A89U C95G | -2.27 |

| Variant | polymerase ribozyme fitness (log ratio) |
| --- | --- |
| G59C U61G G84A C95G A120C G143U | -4.18 |
| G59A A60G G94U C95A | -1.74 |
| G59A A73G U90C C93G C131U U144G | ≤ -4.2 |
| G59A C93G | -3.78 |
| G59A C93U | -3.33 |
| G59A C93A | -3.22 |
| G59A G70U C93G A113U | ≤ -4.2 |
| G59A C116U | -0.293 |
| G58U G83A C85U | -0.262 |
| G59A C123A | -0.0504 |
| G59A U78A G92U C96A C114U A121U | ≤ -4.2 |
| G59A G86A | -2.02 |
| G59A G86U | -1.84 |
| G59C C85G C95U C116A | -2.38 |
| G59A A64C G88C | ≤ -4.2 |
| G59C G81U G83A G124A G141U | 0.692 |
| G58U C132G | -2.82 |
| G59C U101G | -0.121 |
| G59C G83A | -0.754 |
| G59C G83U | 0.0759 |
